Biological target: T1, CCR5 (G-protein coupled chemokine receptor) on human PBMC (human, UniProt P51681 1-352)
T1 construct: whole, on cells; The cells were primary PBMC, not transfectants, so the receptor is assigned through the CCR5 agonist MIP-1β; also called G-protein Chemokine Receptor CCR5
Experiment: 125I-MIP-1β competition binding on human PBMC cultured 2 days; labelled competitor 0.17 nM 125I-MIP-1β; cells preincubated with supernatant 45 min at 37 °C, then hot ligand 60 min at RT; cell pellet collected by density centrifugation through oil; readout cpm
Experimental: Human PBMC were purified from whole blood and cultured for 2 days. […] After 60 minutes, cell bound ¹²⁵I-MIP-1 was separated from unbound ¹²⁵I-MIP-1, and the radioactivity determined.
PBMCs were grown, purified, and suspended in calcium buffer as described above in Example 49.

T1 sequence (P51681 whole entry): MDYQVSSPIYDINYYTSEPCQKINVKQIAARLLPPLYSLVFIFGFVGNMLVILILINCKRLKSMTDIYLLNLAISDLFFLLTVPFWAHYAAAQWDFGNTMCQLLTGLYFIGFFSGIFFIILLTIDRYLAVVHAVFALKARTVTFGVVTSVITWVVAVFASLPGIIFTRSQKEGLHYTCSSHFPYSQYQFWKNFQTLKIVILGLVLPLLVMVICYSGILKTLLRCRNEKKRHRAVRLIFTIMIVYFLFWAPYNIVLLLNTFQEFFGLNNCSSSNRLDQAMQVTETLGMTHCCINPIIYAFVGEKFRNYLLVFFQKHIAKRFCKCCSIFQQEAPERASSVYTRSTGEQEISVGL

binding result: binds
B1: Ckb1 construct 1832 (pC4:MPIFsp.CKB1(G28-N93)), secreted product ck-beta-1 G28-N93 (ligand)
chain: GPYHPSECCFTYTTYKIPRQRIMDYYETNSQCSKPGIVFITKRGHSVCTNPSDKWVQDYIKDMKEN
notes: Non-fusion Ckb1, expressed in mammalian cells from pC4
